Results published in patent US20210388087A1.
Changes are numbered by the printed parent chain. In names and notes the source's numbering stands.

B1: dBBDu183H V95E / dBBDu072L (antibody, name in Kabat numbering, V domains shown)
VH: QVQLVESGGGLVQPGRSLRLSCAASGFTFSNAWMHWVRQAPGKGLEWVAQIKDKGNAYAAYYAPSVKGRFTISRDDSKNSIYLQMNSLKTEDTAVYYCHYEHYASASTVLPAFGVDAWGQGTTVTVSS
VL: DIVMTQSPLSLPVTPGEPASISCQASQELVHMNRNTYLHWYQQKPGQAPRLLIYKVSNRFPGVPDRFSGSGSGTDFTLKISRVEAEDVGVYYCAQGTSVPFTFGQGTKLEIK
B2: dBBDu183H H96E / dBBDu072L (antibody, name in Kabat numbering, V domains shown)
VH: B1 VH with E101V, H102E
VL: B1 VL
B3: dBBDu183H Y97E / dBBDu072L (antibody, name in Kabat numbering, V domains shown)
VH: B1 VH with E101V, Y103E
VL: B1 VL
B4: dBBDu183H S99E / dBBDu072L (antibody, name in Kabat numbering, V domains shown)
VH: B1 VH with E101V, S105E
VL: B1 VL
B5: dBBDu183H S100aE / dBBDu072L (antibody, name in Kabat numbering, V domains shown)
VH: B1 VH with E101V, S107E
VL: B1 VL
B6: dBBDu183H T100bE / dBBDu072L (antibody, name in Kabat numbering, V domains shown)
VH: B1 VH with E101V, T108E
VL: B1 VL
B7: dBBDu183H A100fE / dBBDu072L (antibody, name in Kabat numbering, V domains shown)
VH: B1 VH with E101V, A112E
VL: B1 VL
B8: dBBDu183H G100hE / dBBDu072L (antibody, name in Kabat numbering, V domains shown)
VH: B1 VH with E101V, G114E
VL: B1 VL
B9: dBBDu183H V100iE / dBBDu072L (antibody, name in Kabat numbering, V domains shown)
VH: B1 VH with E101V, V115E
VL: B1 VL
B10: dBBDu183H A102E / dBBDu072L (antibody, name in Kabat numbering, V domains shown)
VH: B1 VH with E101V, A117E
VL: B1 VL
B11: dBBDu183H Y94H / dBBDu072L (antibody, name in Kabat numbering, V domains shown)
VH: B1 VH with Y100H, E101V
VL: B1 VL
B12: dBBDu183H V95H / dBBDu072L (antibody, name in Kabat numbering, V domains shown)
VH: B1 VH with E101H
VL: B1 VL
B13: dBBDu183H Y97H / dBBDu072L (antibody, name in Kabat numbering, V domains shown)
VH: B1 VH with E101V, Y103H
VL: B1 VL
B14: dBBDu183H A98H / dBBDu072L (antibody, name in Kabat numbering, V domains shown)
VH: B1 VH with E101V, A104H
VL: B1 VL
B15: dBBDu183H A100H / dBBDu072L (antibody, name in Kabat numbering, V domains shown)
VH: B1 VH with E101V, A106H
VL: B1 VL
B16: dBBDu183H S100aH / dBBDu072L (antibody, name in Kabat numbering, V domains shown)
VH: B1 VH with E101V, S107H
VL: B1 VL
B17: dBBDu183H T100bH / dBBDu072L (antibody, name in Kabat numbering, V domains shown)
VH: B1 VH with E101V, T108H
VL: B1 VL
B18: dBBDu183H L100dH / dBBDu072L (antibody, name in Kabat numbering, V domains shown)
VH: B1 VH with E101V, L110H
VL: B1 VL
B19: dBBDu183H G100hH / dBBDu072L (antibody, name in Kabat numbering, V domains shown)
VH: B1 VH with E101V, G114H
VL: B1 VL
B20: dBBDu183H V100iH / dBBDu072L (antibody, name in Kabat numbering, V domains shown)
VH: B1 VH with E101V, V115H
VL: B1 VL
B21: dBBDu183H D101H / dBBDu072L (antibody, name in Kabat numbering, V domains shown)
VH: B1 VH with E101V, D116H
VL: B1 VL
B22: dBBDu183H A102H / dBBDu072L (antibody, name in Kabat numbering, V domains shown)
VH: B1 VH with E101V, A117H
VL: B1 VL
B23: dBBDu183H H93K / dBBDu072L (antibody, name in Kabat numbering, V domains shown)
VH: B1 VH with H99K, E101V
VL: B1 VL
B24: dBBDu183H Y94K / dBBDu072L (antibody, name in Kabat numbering, V domains shown)
VH: B1 VH with Y100K, E101V
VL: B1 VL
B25: dBBDu183H V95K / dBBDu072L (antibody, name in Kabat numbering, V domains shown)
VH: B1 VH with E101K
VL: B1 VL
B26: dBBDu183H H96K / dBBDu072L (antibody, name in Kabat numbering, V domains shown)
VH: B1 VH with E101V, H102K
VL: B1 VL
B27: dBBDu183H Y97K / dBBDu072L (antibody, name in Kabat numbering, V domains shown)
VH: B1 VH with E101V, Y103K
VL: B1 VL
B28: dBBDu183H A98K / dBBDu072L (antibody, name in Kabat numbering, V domains shown)
VH: B1 VH with E101V, A104K
VL: B1 VL
B29: dBBDu183H S100aK / dBBDu072L (antibody, name in Kabat numbering, V domains shown)
VH: B1 VH with E101V, S107K
VL: B1 VL
B30: dBBDu183H T100bK / dBBDu072L (antibody, name in Kabat numbering, V domains shown)
VH: B1 VH with E101V, T108K
VL: B1 VL
B31: dBBDu183H A100fK / dBBDu072L (antibody, name in Kabat numbering, V domains shown)
VH: B1 VH with E101V, A112K
VL: B1 VL
B32: dBBDu183H F100gK / dBBDu072L (antibody, name in Kabat numbering, V domains shown)
VH: B1 VH with E101V, F113K
VL: B1 VL
B33: dBBDu183H G100hK / dBBDu072L (antibody, name in Kabat numbering, V domains shown)
VH: B1 VH with E101V, G114K
VL: B1 VL

These binders were tested against Human CD137 ECD (human) (assay: SPR, vs parent H183/L072).
Sequence of Human CD137 ECD (human) (chain, as listed by the source limits assumed): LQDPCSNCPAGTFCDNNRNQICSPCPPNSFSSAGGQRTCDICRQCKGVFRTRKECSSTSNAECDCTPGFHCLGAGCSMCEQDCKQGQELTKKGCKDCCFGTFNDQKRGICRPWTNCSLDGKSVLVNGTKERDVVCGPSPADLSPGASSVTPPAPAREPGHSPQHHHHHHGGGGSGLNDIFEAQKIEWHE

Fold change of affinity, 0 fold:
B1
B2
B3
B4
B5
B6
B7
B8
B9
B10
B11
B12
B13
B14
B15
B16
B17
B18
B19
B20
B21
B22
B23
B24
B25
B26
B27
B28
B29
B30
B31
B32
B33
